Results on 3 molecules are retold here after publication PMC6203763.

The target in assay [1] is recombinant human wild-type SHMT2 (isoform 3) (human). Nature of the assay: SEC; recombinant proteins purified by nickel affinity chromatography, separated by gel filtration, fractions analysed by western blot.
The target of assay [2] is T1, Flag-tagged wild-type SHMT2 expressed in SHMT2-knockout HCT116 cells (human), P34897.
T1 chain: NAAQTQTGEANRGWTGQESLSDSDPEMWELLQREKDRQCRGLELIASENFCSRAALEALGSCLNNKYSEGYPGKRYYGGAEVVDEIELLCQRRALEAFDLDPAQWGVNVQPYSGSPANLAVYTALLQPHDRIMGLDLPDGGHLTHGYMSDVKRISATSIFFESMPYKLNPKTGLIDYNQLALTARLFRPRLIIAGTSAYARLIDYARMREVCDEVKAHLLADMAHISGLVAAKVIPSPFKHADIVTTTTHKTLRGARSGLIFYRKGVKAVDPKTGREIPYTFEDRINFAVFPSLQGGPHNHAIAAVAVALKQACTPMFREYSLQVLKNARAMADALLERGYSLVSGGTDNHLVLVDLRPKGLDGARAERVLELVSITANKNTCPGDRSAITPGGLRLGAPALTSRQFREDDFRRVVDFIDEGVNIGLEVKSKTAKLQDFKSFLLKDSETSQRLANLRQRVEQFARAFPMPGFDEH
Nature of the assay: cross-linking; cell lysates treated with or without 0.025% glutaraldehyde, western blot with anti-SHMT2; SHMT2-knockout HCT116 cells expressing Flag-tagged WT or K95Q, and SIRT3-knockout or control HCT116 cells. The note with it: remark: other sources report otherwise.

Assay [3] addresses T2, serine hydroxymethyltransferase 2 (SHMT2), endogenous in HCT116 cells (human (endogenous in HCT116)), P34897.
T2 chain: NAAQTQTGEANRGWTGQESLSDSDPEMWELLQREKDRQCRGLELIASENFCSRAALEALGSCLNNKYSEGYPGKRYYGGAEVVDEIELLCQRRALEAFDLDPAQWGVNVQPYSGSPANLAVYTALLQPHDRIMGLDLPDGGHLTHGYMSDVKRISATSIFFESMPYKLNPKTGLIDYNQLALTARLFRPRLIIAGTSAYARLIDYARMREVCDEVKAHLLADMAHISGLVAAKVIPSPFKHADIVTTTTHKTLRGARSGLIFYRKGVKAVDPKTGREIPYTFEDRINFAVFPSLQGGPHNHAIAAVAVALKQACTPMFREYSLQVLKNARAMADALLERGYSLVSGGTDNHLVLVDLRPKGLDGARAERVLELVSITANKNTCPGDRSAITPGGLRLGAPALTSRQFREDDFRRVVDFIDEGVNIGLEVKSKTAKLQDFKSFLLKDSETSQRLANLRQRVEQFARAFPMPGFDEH
Described as above. Particulars: remark: other sources report otherwise.

The term stoichiometry N denotes a count of units in the complex or per binding partner. In the case of “recombinant human wild-type SHMT2 (isoform 3) (enzyme)”, the stoichiometry N in assay [1] is 4.

B1: Flag-tagged wild-type SHMT2 expressed in SHMT2-knockout HCT116 cells, P34897 30-504 (natural protein)
chain: NAAQTQTGEANRGWTGQESLSDSDPEMWELLQREKDRQCRGLELIASENFCSRAALEALGSCLNNKYSEGYPGKRYYGGAEVVDEIELLCQRRALEAFDLDPAQWGVNVQPYSGSPANLAVYTALLQPHDRIMGLDLPDGGHLTHGYMSDVKRISATSIFFESMPYKLNPKTGLIDYNQLALTARLFRPRLIIAGTSAYARLIDYARMREVCDEVKAHLLADMAHISGLVAAKVIPSPFKHADIVTTTTHKTLRGARSGLIFYRKGVKAVDPKTGREIPYTFEDRINFAVFPSLQGGPHNHAIAAVAVALKQACTPMFREYSLQVLKNARAMADALLERGYSLVSGGTDNHLVLVDLRPKGLDGARAERVLELVSITANKNTCPGDRSAITPGGLRLGAPALTSRQFREDDFRRVVDFIDEGVNIGLEVKSKTAKLQDFKSFLLKDSETSQRLANLRQRVEQFARAFPMPGFDEH
Consider B1, for which, in assay [2], the stoichiometry N was found to be 4.

B2: serine hydroxymethyltransferase 2 (SHMT2), endogenous in HCT116 cells, P34897 30-504 (natural protein)
chain: NAAQTQTGEANRGWTGQESLSDSDPEMWELLQREKDRQCRGLELIASENFCSRAALEALGSCLNNKYSEGYPGKRYYGGAEVVDEIELLCQRRALEAFDLDPAQWGVNVQPYSGSPANLAVYTALLQPHDRIMGLDLPDGGHLTHGYMSDVKRISATSIFFESMPYKLNPKTGLIDYNQLALTARLFRPRLIIAGTSAYARLIDYARMREVCDEVKAHLLADMAHISGLVAAKVIPSPFKHADIVTTTTHKTLRGARSGLIFYRKGVKAVDPKTGREIPYTFEDRINFAVFPSLQGGPHNHAIAAVAVALKQACTPMFREYSLQVLKNARAMADALLERGYSLVSGGTDNHLVLVDLRPKGLDGARAERVLELVSITANKNTCPGDRSAITPGGLRLGAPALTSRQFREDDFRRVVDFIDEGVNIGLEVKSKTAKLQDFKSFLLKDSETSQRLANLRQRVEQFARAFPMPGFDEH
In the case of B2, the stoichiometry N in assay [3] came to 4.
